The values below come from US20200283491A1.

What all share (experiment): cell-based or functional assay
The target of one assay is rat Y2 receptor (rat) (UniProt Q9ERC0).
Assay [1] deals with mouse Y2 receptor (mouse) (UniProt P97295).
The target of assay [2] is rhesus monkey Y2 receptor (rhesus monkey) (UniProt Q9GK74).
Assay [3] addresses human Y1 receptor (human) (UniProt P25929).

Chain of rhesus monkey Y2 receptor (rhesus monkey) (Q9GK74 whole entry): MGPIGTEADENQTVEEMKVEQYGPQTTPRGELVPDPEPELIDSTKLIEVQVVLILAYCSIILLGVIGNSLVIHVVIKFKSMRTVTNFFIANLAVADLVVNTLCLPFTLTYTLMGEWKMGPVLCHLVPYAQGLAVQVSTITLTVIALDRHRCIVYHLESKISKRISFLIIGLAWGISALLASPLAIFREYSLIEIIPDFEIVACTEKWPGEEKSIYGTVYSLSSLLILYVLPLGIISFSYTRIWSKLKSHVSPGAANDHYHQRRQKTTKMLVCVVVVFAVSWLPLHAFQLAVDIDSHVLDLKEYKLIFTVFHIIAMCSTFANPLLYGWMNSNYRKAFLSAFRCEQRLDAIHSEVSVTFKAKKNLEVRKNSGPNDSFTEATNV
Chain of human Y1 receptor (human) (P25929 whole entry): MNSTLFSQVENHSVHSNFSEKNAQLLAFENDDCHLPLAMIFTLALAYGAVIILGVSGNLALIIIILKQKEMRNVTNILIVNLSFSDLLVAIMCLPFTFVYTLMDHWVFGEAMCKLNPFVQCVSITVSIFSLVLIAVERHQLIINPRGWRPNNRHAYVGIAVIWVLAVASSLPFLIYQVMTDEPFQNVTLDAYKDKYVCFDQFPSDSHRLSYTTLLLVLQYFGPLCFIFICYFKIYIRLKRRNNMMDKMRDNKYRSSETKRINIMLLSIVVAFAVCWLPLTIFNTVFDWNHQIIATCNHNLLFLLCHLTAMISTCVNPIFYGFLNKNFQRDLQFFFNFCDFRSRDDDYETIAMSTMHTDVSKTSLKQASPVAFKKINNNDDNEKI
Chain of rat Y2 receptor (rat) (Q9ERC0 entry or part of it): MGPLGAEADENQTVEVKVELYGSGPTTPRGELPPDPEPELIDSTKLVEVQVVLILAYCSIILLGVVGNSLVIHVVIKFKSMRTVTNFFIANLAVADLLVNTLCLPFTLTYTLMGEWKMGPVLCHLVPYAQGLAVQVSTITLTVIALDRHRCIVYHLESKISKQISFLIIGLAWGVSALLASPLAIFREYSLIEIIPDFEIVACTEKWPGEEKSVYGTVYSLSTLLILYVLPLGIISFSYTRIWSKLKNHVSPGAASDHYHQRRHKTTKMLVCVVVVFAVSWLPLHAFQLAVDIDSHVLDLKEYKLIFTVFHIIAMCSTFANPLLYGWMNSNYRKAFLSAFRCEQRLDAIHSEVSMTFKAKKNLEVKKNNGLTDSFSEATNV
Chain of mouse Y2 receptor (mouse) (P97295 whole entry): as the sequence (Q9ERC0 entry or part of it) above, with L4V, L20P, S23P, P25H, V52I, Q163R, V175I, K247R, T266M, L371P counted along it

For “PYY3-36 (from UniProt P10082 31-64) (peptide)”, the Cross-species potency (EC50 nM), cAMP assay was determined as 0.5 nM with rat Y2 receptor (rat), 0.03 nM in assay [1] and 0.06 nM in assay [2]. Moreover, the Human isoform potency (EC50 nM), cAMP assay in assay [3] worked out at 66.4 nM.
